Data: patent US20230116587A1

Target: RBD of the recombinantly expressed S protein (novel coronavirus SARS-CoV-2) (UniProt P0DTC2)
Assay: ELISA, RBD coated at 0.01 µg/ml, antibody 0.1 µg/ml, HRP anti-human IgG Fc

irrelevant control antibody
OD450 reading: 0.006 OD450
